Assay results: article PMC10157364

Columns and labels:
[1] = target: all anti-oxMIF antibodies (quantitative oxMIF ELISA, Fig. 1C); test: ELISA; quantitative oxMIF ELISA: 15 nmol/L C0008, ON103 or ON203 as capture antibodies; human or mouse MIF in buffers with 0.2% Proclin300 as standard curves; EC50
[2] = target: ON103 and ON203 versus C0008 (SPR, Fig. 1D); test: SPR; Biacore 3000; antibodies amine-coupled to CM5 chips (about 2,500; 1,500; 1,000 RU); MIF at 42-666 nmol/L in HBS-EP with 0.2% Proclin300 (3 hours, room temperature), 30 uL/minute; Langmuir 1:1 model with mass transfer; mean of flow cells 2-4

B1: human MIF treated with 0.2% Proclin300 (oxMIF surrogate) (natural protein)
chain: MPMFIVNTNVPRASVPDGFLSELTQQLAQATGKPPQYIAVHVVPDQLMAFGGSSEPCALCSLHSIGKIGGAQNRSYSKLLCGLLAERLRISPDRVYINYYDMNAANVGWNNSTFA
modifications: treated with 0.2% Proclin300 to transform MIF into an oxMIF surrogate
**Q.** How did the EC50 [1] turn out when B1 was run?
**A.** 0.6 to 0.7 nM

**Q.** And the Kd [2]?
**A.** 3.5 to 6.1 nM
